The data set in a line: label from the status in PepcDB records.
Turning to “NGMDEEQRQKRRRIEVALIEYRETLEEQGMKNPEEIERKVEINRKRLEVDYGLS”, the protein production entry is “not failed”.
Turning to “MSAEVETSEGVDESEKKNSGALEKENQMRMADLSELLKEGTKEAHDRAENTQFVKDFLKGNIKKELFKLATTALYFTYSALEEEMERNKDHPAFAPLYFPMELHRKEALTKDMEYFFGENWEEQVQCPKAAQKYVERIHYIGQNEPELLVAHAYTRYMGDLSGGQVLKKVAQRALKLPSTGEGTQFYLFENVDNAQQFKQLYRARMNALDLNMKTKERIVEEANKAFEYNMQIFNELDQAGSTLARETLEDGFPVHDGKGDMRKCPFYAAEQDKGALEGSSCPFRTAM”, the protein production result is recorded as “not failed”.
For “MSLKVVIGYLALDDWEFESLFPTIEWKYLTHINASFARVKADGTLNINPVRKRIESVRETAHKHNVKILISLAKNSPGEFTTAINDPKARKELIQQIIAFTKEYKLDGFDIDYEEYDNWDKNFPSLLVFARGLYLAKEKNMLMTCAVNSRWLNYGTEWEQYFDYINLMSYDRGAFTDKPVQHASYDDFVKDLKYWNEQCRASKSKIVGGLPFYGYSWEESLQGAVDDVRGIRYSGILKHLGNEAADKDNIGKTYYNGRPTIANKCKFIKENDYAGVMIWQLFQDAHNDNYDLKLINVVGREMMEEGHHHHHH”, the protein production entry was “not failed”.
Turning to “MGRYKDETPAVRVYTVCDESRYMIVRNVPALGCGDDLMRLFMTYGEVEEFAKRKLDESSFLGNRLQISYAPEYENVNDTKDKLESRRKEVLARLNPQKEKSTSQVTKLAGPALTQTDNVSSQRREMEYQFHRGNAPVTRVSSDQEYFASSSMNQTVKTVREKLNKTREENISSLSHCKQIEESGNQKRLQPSSQTQPEESGNQKRLQPSSQIQPDLKRTRVDNRRRI”, the protein production entry is listed as “failed”.
Turning to “VQFSLLHSKFHLCSVATRALLLSTYIKFINLFPETKATIQGVLRAGSQLRNADVELQQRAVEYLTLSSVASTDVLATVLEEMPPFPERESSILAKLKRKKGPGAGSALDDGRRDPSSNDINGGME”, the protein production entry was “failed”.
Take “MDLMAYWLCITNEDNWKVIKEKKIWGVAERYKNTINKVKVGDKLIIYEIQRSGKDYKPPYIRGVYEVVSEVYKDSSKIFKPTPRNPNEKFPYRVKLKEIKVFEPPINFKELIPKLKFITNKKRWSGHLMGKAMREIPEEDYKLIVGN”: the protein production entry is “not failed”.
Turning to “MNADTAIRIIEPPPSRGQLLYDGIRSLRKPKPDAAPQLPTERLVRPAVELKADEIARYARACGFRREHGVPLAFPHTLAFPLHLLLLTRPTFPYPASGMVHLANRIRQYQRLEEGQALRLEVFAERWLAHPKGQALSIATRAHSGGSLVWESDSLYLRRGVAGPIGEPWEGSLQWDEQALVRTQRWSLGGDLGRRFAQVSGDFNPIHTSWLGARLFGFRRPIAHGMWTLGRALAAQQPPHPLAAAQLDCEFKLPIFLPAAVTLWNRLPDGPRHEFEVRNNAGDKPHMRGLFIWGAR”, the protein production entry was “failed”.
To “MEALKIALLGGGTVGSAFYNLVLERAEELSAFGVVPRFLGVLVRDPRKPRAIPQELLRAEPFDLLEADLVVEAMGGVEAPLRLVLPALEAGIPLITANKALLAEAWESLRPFAEEGLIYHEASVMAGTPALSFLETLRGSELLELHGILNGTTLYILQEMEKGRTYAEALLEAQRLGYAEADPTLDVEGIDAAHKLTLLARLLVDPGFPFAEVEAQGIARLTPEVLQKAEARGERVRLVASLFGEGGRWRAAVAPRRLPQDHPLARARGNALWVRARPLGEAFVTGPGAGGGATASGLFADLLRFLSGAPGHLPAPRARPPLEEGSPWPGVE” belongs “failed”.
For the sequence “MALVSADSRIAELLTELHQLIKQTQEERSRSEHNLVNIQKTHERMQTENKISPYYRTKLRGLYTTAKADAEAECNILRKALDKIAEIKSLLEERRIAAKIAGLYNDSEPPRKTMRRGVLMTLLQQSAMTLPLWIGKPGDKPPPLCGAIPASGDYVARPGDKVAARVKAVDGDEQWILAEVVSYSHATNKYEVDDIDEEGKERHTLSRRRVIPLPQWKANPETDPEALFQKEQLVLALYPQTTCFYRALIHAPPQRPQDDYSVLFEDTSYADGYSPPLNVAQRYVVACKEPKKK”, the protein production result is listed as “failed”.
In the case of “MAKSPKFMVFHLRELIYTLVFILLGIILIISLVIMFYNRGNKQEKEENTGVYEPGVYTSCVTLNGNPMDVKVTLDDNHINSITVDNVSNTITTMYPLVEPAFNDIANQIVTNQSLENIKFDDNSKYTYTILYNAILDTIEKGKVGE”, the protein production result is recorded as “failed”.
In the case of “MNEKIEQAIREMGFKNFTEVQSKTIPLMLQGKNVVVRAKTGSGKTAAYAIPILELGMKSLVVTPTRELTRQVASHIRDIGRYMDTKVAEVYGGMPYKAQINRVRNADIVVATPGRLLDLWSKGVIDLSSFEIVIIDEADLMFEMGFIDDIKIILAQTSNRKITGLFSATIPEEIRKVVKDFITNYEEIEACIGLANVEHKFVHVKDDWRSKVQALRENKDKGVIVFVRTRNRVAKLVRLFDNAIELRGDLPQSVRNRNIDAFREGEYDMLITTDVASRGLDIPLVEKVINFDAPQDLRTYIHRIGRTGRMGRKGEAITFILNEYWLEKEVKKVSQKA”, the protein production result is reported as “not failed”.
To “EQAEAQLAELDLLASMFPGENELIVNDQLAVAELKDCIEKKTMEGRSSKVYFTINMNLDVSDEKMAMFSLACILPFKYPAVLPEITVRSVLLSRSQQTQLNTDLTAFLQKHCHGDVCILNATEWVREHASGYVSRDTSS” belongs “not failed”.
Consider “RAAAALAAGALALSLTACGGDEDNGGGDGGDEGGGAKQPASSVTLPKLDGESLEVAAVWTGTEQENFKKVLAEFEKRTGAKVTFVPAQDPIINFLGSKIAGGAPPDVAMLPQPGAIKQAVDKGWAKPLGAEATKELGENYSQGWQDIGKVGGKQYGVYYKAANKSLIWYNAQVFENAGAAEPKTWDELLNAAQMVYDSGVTPFSVGGADGWTLTDWFENVYLSQAGPEKYDQLAKHEIKWTDPSVKDALTTLAEIWGKKDFVAGGASGALQTEFPASVTQTFTGGDQPKAGMVYEGDFVQVNIGETKAKVGTDAKVFPFPAVGDTAPVVSGGDAAVVFKDSKAAQALATWLASPDAAGIQAKLGGFLSPNKSIDSSVYPNEVQKKIAEALVAAGDDFRFDMSDQAPQAFGGTPGKGEWKTLQDFLKNPKDVAGAQAKLEADAAAAYG”, for which the protein production result is given as “failed”.
The value for “MATISAKLVKELREKTGAGMMDCKKALTETDGDIDKAIDYLREKGIAKAAKKADRIAAEGLVHVETKGNDAVIVEINSETDFVARNEGFQELVKEIANQVLDTKAETVEALMETTLPNGKSVDERIKEAISTIGEKLSVRRFAIRTKTDNDAFGAYLHMGGRIGVLTVVEGSTDEEAARDVAMHIAAINPKYVSSEQVSEEEINHEREVLKQQALNEGKPENIVEKMVEGRLRKYLQEICAVDQDFVKNPDVTVEAFLKTKGGKLVDFVRYEVGEGMEKREENFADEVKGQMK” was “failed”.
Regarding “MSTKGTILVTGGAGYIGSHTAVELLAHGYDVVIADNLVNSKREAIARIEKITGKTPAFHETDVSDERALARIFDAHPITAAIHFAALKAVGESVAKPIEYYRNNLDSLLSLLRVMRERAVKRIVFSSSATVYGVPERSPIDETFPLSATNPYGQTKLMAEQILRDVEAADPSWRVATLRYFNPVGAHESGLIGEDPAGIPNNLMPYVAQVAVGKLEKLRVFGSDYPTPDGTGVRDYIHVVDLARGHIAALDALERRDASLTVNLGTGRGYSVLEVVRAFEKASGRAVPYELVARRPGDVAECYANPAAAAETIGWKAERDLERMCADHWRWQENNPRGFV”, the protein production entry was “not failed”.
With “MLRKKHFSWMLVILILIAVLSFIKLPYYITKPGEATELASLIKVEGGYPEKGSLSLMTVKVGPANPFTYVWAKMHPYYEIVPDESIKEEGESDKEYMKRQLQMMKSSQENAVIAAYQKAGKKVSYSFNGIYASSVVENMPAKGKIEVGDKIISADGKNYQSAEKLIDYISSKKAGDKVTLKIEREEKEKRVTLTLKQFPDEPDRAGIGVSLYTDRNVKVEPDIDFEIENIGGPSAGLMMSLEIYNQLTKPDETKGYDIAGTGTIDVDGKVGPIGGIDQKVVAADKAGKDIFFAPNQNGASNSDYKNAVKTAKDIDSNMKIVPVDTMQDAIDYLNKLKAKQPDSQVLFLYI”, the protein production entry is listed as “failed”.
The value for “SSPIRLSTSNLPMTLTTNTSSGAPNKAFNTSSVNSGNSFSRTTTSSTTTTTERIEIRAEGDGEVDTDSIRKRITERLRRSVSKTISNLAGTPVTNTEEGSRYSRSVSRSVYDDEKSSKRSYSTGEEDIDEEDELEEDQFRSFNVTRKSATPAEISCRQLKAPREFGGWLGAFLFLLLLPTAVYYLTWSCTARNACQFKHLNLGILLDVNYLTRQVFQPRVVGAFAAYQVVVFLLVALLPGRRVHLTRETYKFNCLAVSLTLLIASGVAEYLKYPVVTFVLRHYLRFCIFGLVGAFVAAAW” was “failed”; that for “MTTPGKLNKARVPPYKTAGLGLVLVFALVVALVYLQFRGEFTPKTQLTMLSARAGLVMDPGSKVTYNGVEIGRVDTISEVTRDGESAAKFILDVDPRYIHLIPANVNADIKATTVFGGKYVSLTTPKNPTKRRITPKDVIDVRSVTTEINTLFQTLTSIAEKVDPVKLNLTLSAAAEALTGLGDKFGESIVNANTVLDDLNSRMPQSRHDIQQLAALGDVYADAAPDLFDFLDSSVTTARTINAQQAELDSALLAAAGFGNTTADVFDRGGPYLQRGVADLVPTATLLDTYSPELFCTIRNFYDADPLAKAAAGGGNGYSLRTNSEILSGIGISLLSPLALATNGAAIGIGLVAGLIASPLAVAANLAGALPGIVGGAPNPYTYPENLPRVNARGGPGGAPGCWQPITRDLWPAPYLVMDTGASLAPYNHMEVGSPYAVEYVWGRQVGDNTINP” was “failed”; that for “MAPEPLSAAGQNLIDTATSVINGIPVSDFYSVASAAISDDGRVFSGVNVYHFNGGPCAELVVLGVAAAAGATKLTHIVAIANEGRGILSPCGRCRQVLADLHPGIKAIVIGKEGPKMVAVEELLPSIYAWDKDYDRI” was “not failed”.
Take “MSLKFFLKAYARIAAIAAAVVLVCVLLFNGINSVREQYWHEQAMTPVMRWLAAAPDPLSQYHWMAPMFGLHSGVAADFGLSQVALERLGYGQVVAQSTDSGYGYYVLGLGGEVLGIHLEQPYRDLARAISLMVRWHLDTSPAAQRADVAQQLAESLNLDIRLVQKTEDLPDQQALERLGDTGLAIFEHGDNRARALVRLSEGALVVVTLPPPFNPWGWPIILLLTAVVGGVLAVALFLALRFVESHLRKVESVAIRIARGEMGARVESEQGTLVSRLGTSFNGMAEHIQRLVQVQREMIHAVSHELRTPVARIRFGVQMIESGSTQEVLEKQLEGIDGDIQELDELIDEILTYARLEQGGPVFSLREGSVTDIVRQVVSEQRLIREGVDIECQIDEASERWAQADMEPRYIHRAIQNLVGNAARYAAGRVQVSCHLDEDNCRIDVEDDGPGIPEQDWEKVFTAFARLDDSRTRTSGGYGLGLSIVRRILYWHGGQAFVGRSDVLGGARFSLVWPRLKPADPDL”: the protein production entry is given as “failed”.
“MDSYSITNVKYLDPTELHRWMQEGHTTTLREPFQVVDVRGSDYMGGHIKDGWHYAYSRLKQDPEYLRELKHRLLEKQADGRGALNVIFHCMLSQQRGPSAAMLLLRSLDTAELSRCRLWVLRGGFSRWQSVYGDDESVTAGYLPDLWR”: the protein production result is on record as “not failed”.

(Values after a protein production outcome set (Wang et al. 2014).)
